Drawing on publication PMC5207070, “The Amino-terminal Domain of the Androgen Receptor Co-opts Extracellular Signal-regulated Kinase (ERK) Docking Sites in ELK1 Protein to Induce Sustained Gene Activation That Supports Prostate Cancer Cell Growth*^([image sbox.jpg])” (The Journal of Biological Chemistry, 2016), this text covers Kd for one molecule.

The target of this experiment is T1, purified full-length human AR (Abcam ab82609) (human, UniProt P10275 1-920).
T1 construct: androgen receptor, human, full length; also called Purified AR; AR polypeptide (ligand)
T1 sequence (looked up): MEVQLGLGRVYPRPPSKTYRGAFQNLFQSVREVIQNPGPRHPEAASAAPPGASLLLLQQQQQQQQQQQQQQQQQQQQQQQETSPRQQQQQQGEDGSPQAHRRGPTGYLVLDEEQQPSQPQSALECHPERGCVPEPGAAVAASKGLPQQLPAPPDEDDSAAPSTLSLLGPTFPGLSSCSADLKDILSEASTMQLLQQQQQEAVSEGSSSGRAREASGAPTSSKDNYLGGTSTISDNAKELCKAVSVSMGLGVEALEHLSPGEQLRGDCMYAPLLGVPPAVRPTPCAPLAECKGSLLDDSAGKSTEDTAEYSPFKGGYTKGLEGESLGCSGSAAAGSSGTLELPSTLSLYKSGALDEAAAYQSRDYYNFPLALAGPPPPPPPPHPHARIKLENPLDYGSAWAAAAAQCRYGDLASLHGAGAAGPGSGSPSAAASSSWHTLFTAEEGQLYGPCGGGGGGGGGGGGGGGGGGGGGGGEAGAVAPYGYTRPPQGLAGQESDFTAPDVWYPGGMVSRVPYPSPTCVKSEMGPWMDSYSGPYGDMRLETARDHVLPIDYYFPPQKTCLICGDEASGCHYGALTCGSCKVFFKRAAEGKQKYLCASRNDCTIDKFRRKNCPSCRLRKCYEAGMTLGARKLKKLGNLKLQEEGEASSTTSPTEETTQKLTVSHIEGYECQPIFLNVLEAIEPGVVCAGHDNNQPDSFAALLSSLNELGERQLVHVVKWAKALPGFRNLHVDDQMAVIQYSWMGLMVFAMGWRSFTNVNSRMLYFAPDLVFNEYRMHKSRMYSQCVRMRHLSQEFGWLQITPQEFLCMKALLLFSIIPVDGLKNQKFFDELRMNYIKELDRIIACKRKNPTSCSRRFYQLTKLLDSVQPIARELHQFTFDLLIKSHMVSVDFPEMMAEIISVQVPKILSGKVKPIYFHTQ
The experiment in a line: SPR; BIAcore 3000; AR immobilised on a CM5 chip by amine coupling; His-ELK1 (0-160 nM) or mutant ELK1 (100 nM) as analyte; HBS-N buffer; 1:1 Langmuir model; Kd = koff/kon. The settings on record: both partners purified. In general terms: Surface plasmon resonance follows binding to a sensor surface in real time, without labels.

B1: His-tagged ELK1 (natural protein, human, UniProt P19419 1-428, looked up)
chain: MDPSVTLWQFLLQLLREQGNGHIISWTSRDGGEFKLVDAEEVARLWGLRKNKTNMNYDKLSRALRYYYDKNIIRKVSGQKFVYKFVSYPEVAGCSTEDCPPQPEVSVTSTMPNVAPAAIHAAPGDTVSGKPGTPKGAGMAGPGGLARSSRNEYMRSGLYSTFTIQSLQPQPPPHPRPAVVLPSAAPAGAAAPPSGSRSTSPSPLEACLEAEEAGLPLQVILTPPEAPNLKSEELNVEPGLGRALPPEVKVEGPKEELEVAGERGFVPETTKAEPEVPPQEGVPARLPAVVMDTAGQAGGHAASSPEISQPQKGRKPRDLELPLSPSLLGGPGPERTPGSGSGSGLQAPGPALTPSLLPTHTLTPVLLTPSSLPPSIHFWSTLSPIAPRSPAKLSFQFPSSGSAQVHIPSISVDGLSTPVVLSPGPQKP
notes: ELK1, recombinant; Construct details are in the supplemental material; also called purified ELK1
A word on the Kd: it is the free concentration of one partner at which half of the binding sites on the other are occupied at equilibrium, for simple one-to-one binding. In turn, B1 registered a Kd of 19 nM.
